Results on four molecules are retold here after patent US20250289885A1 (TRUSTEES OF BOSTON UNIVERSITY, published 2025).

Assay [1] addresses T1, Notch1-Gal4 chimeric receptor (hN1 ECD-Gal4 ICD) on CHO-K1 cells (human, UniProt P46531 19-1735).
T1 construct: extracellular domain; H2B-mTurq2 marker; also called Notch1-Ga4; NOTCH1 ECD-GAL4 ICD; not shown: transmembrane segment and Gal4 intracellular domain
In words: fluorescence microscopy of JFX650-labelled probody on CHO-K1 cells expressing Notch1-Gal4. From the text: FIGS. 30A and 30B present data showing anti-NRR1-based probodies can bind Notch1 receptors following deletion of the S1 loop (ΔS1) containing the NRR's furin cleavage site. The probodies used represent the anti-NRR1 scFv fused to with a soluble mutant NRR (V1667D) from Notch1, linked together via a TEV protease substrate sequence. The probodies were also fused with a HaloTag domain, which remains attached to the anti-NRR scFv following TEV cleavage. CHO-K1 cells expressing a Notch1-Gal4 chimeric receptor were treated with intact (uncleaved) and TEV protease-cleaved versions of the indicated probodies. The HaloTag domains were conjugated with a JFX650 dye to permit visualization of their binding to cell surface Notch1-Ga4 receptors. (FIG. 30A) Fluorescently labeled probody containing the S1 cleavage loop (Probody^V1667D-JF650) binds Notch1-Gal4 only in its TEV protease-cleaved state. (FIG. 30B) Fluorescently labeled probody containing the S1 cleavage loop deletion (Probody^V1667D(ΔS1)-JF650) similarly binds Notch1-Gal4 in a manner that is dependent on TEV protease cleavage. Insets represent emissions from a constitutively expressed H2B-mTurq2 expressed by the analyzed cells.

Assay [2] concerns the target T2, hNotch1 receptor, stably integrated, on clonal CHO-K1 cells (human, UniProt P46531 19-2555).
T2 construct: whole, on cells; also called human Notch1
In words: fluorescence microscopy of cell-surface bound probody on clonal CHO-K1 cells expressing hNotch1, 40-minute incubation, wash, fixation. The source says: FIGS. 33A-33C present schematics and data showing activation of a probody/masked antibody with specificity against human Notch1 (hNotch) NRR. (FIG. 33A) Schematic depicting the TEV protease (TEVp)-mediated activation and binding of the anti-hNotch1 probody. The probody sequence used contains the V1677D mutant NRR as a “mask” and is linked to an anti-hNotch1 scFv via a linker containing a TEVp substrate sequence. Upon cleavage by TEVp, the NRR mask dissociates from the scFv and is thus able to bind its corresponding antigen. A fluorophore is linked to the probody sequence to permit visualization. (FIGS. 33B and 33C) Tests of scFv binding to hNotch1. Clonal CHO-K1 cells expressing a stably integrated hNotch1 receptor were incubated with the body alone (FIG. 33B) or with the pro body treated with TEVp (FIG. 33C). Following a 40-minute incubation, probody-containing media was removed, and cells were washed with fresh media prior to fixation and DNA staining with Hoechst-JF526 (inset). Cells were imaged to detect cell-surface bound (activated) probody and Hoechst-JF526. Binding to hNotch1 was observed only with the TEVp-cleaved probody sequence. The antibody sequence used in the body can inhibit signaling by wild-type and various disease-associated hNotch1 mutations (Wu et al. Nature 464: 1052-1057 (2010)).

Assay [3] deals with T3, human Notch1-derived receptor overexpressed on CHO-K1 cells (human, UniProt P46531 19-1762, limits assumed).
T3 construct: Cells also express H2B-mTurq; also called Notch1 receptors
T3 sequence (P46531 19-1762 limits assumed): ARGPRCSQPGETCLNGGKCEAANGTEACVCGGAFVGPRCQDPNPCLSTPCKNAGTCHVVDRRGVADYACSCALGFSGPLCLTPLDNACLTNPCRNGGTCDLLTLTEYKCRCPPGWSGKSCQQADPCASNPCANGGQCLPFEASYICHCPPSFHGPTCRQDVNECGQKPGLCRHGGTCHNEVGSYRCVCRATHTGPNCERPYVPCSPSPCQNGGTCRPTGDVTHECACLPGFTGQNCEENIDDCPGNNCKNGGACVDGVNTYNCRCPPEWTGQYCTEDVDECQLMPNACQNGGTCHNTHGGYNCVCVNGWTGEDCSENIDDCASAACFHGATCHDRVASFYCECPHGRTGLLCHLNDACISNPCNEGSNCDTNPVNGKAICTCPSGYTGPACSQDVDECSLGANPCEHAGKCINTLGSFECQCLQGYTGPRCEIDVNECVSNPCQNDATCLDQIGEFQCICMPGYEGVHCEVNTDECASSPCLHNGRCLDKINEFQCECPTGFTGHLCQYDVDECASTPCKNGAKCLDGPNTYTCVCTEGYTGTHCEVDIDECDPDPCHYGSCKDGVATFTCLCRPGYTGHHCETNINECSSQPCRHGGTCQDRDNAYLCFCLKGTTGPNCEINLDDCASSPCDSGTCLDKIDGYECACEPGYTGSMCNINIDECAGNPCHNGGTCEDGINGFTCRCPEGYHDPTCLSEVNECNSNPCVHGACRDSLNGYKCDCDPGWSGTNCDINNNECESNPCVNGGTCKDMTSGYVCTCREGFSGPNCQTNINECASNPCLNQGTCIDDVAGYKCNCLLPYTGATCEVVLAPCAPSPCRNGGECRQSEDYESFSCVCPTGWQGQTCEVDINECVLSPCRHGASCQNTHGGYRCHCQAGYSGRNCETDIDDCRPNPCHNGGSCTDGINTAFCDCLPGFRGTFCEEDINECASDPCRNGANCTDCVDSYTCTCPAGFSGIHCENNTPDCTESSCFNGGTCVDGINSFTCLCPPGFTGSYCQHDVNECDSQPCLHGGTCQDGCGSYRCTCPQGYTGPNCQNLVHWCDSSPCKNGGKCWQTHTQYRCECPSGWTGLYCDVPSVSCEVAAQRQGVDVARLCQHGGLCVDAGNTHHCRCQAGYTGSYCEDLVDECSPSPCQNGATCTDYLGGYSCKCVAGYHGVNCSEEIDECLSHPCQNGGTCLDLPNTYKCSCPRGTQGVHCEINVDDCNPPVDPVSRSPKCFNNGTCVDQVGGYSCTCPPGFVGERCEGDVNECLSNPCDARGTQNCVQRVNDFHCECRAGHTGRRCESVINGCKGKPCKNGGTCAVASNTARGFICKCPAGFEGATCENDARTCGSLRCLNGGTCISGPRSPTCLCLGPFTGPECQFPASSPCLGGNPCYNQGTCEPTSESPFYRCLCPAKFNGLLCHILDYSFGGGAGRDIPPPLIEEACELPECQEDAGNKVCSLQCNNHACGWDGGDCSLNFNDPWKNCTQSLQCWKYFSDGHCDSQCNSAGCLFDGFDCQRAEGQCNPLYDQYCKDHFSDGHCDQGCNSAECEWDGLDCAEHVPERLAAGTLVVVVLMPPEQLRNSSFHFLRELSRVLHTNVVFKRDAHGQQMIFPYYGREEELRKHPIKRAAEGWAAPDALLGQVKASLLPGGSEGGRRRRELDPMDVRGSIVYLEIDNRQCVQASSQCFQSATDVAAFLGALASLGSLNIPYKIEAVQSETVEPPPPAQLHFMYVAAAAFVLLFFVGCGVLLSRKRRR
In words: fluorescence microscopy of JFX650-labelled probody on CHO-K1 cells overexpressing a human Notch1-derived receptor. On the procedure:
FIG. 37 present data showing Probody with a mask based on the wild-type Notch1-NRR binds Notch1 Receptors in a Cleavage-Dependent Manner. A probody containing the anti-NRR1 scFv was fused to a TEV protease cleavable linker and the wild-type Notch1 NRR. The probodies also contained a HaloTag for labeling with a JFX650 dye. Binding of the probody to Notch1 receptors was tested using uncleaved and TEV protease-cleaved probody. The evaluated cells were based on CHO-K1 celle overexpressing a human Notch1-derived receptor; cells also expressed H2B-mTurq as a fluorescent marker (inset).

The target in assay [4] is T4, mouse Notch1 NRR with V1677D, in the ProNotch receptor (mouse, UniProt Q01705 1427-1752).
T4 construct: Domain of a synthetic receptor on cells; also called NRR(V1677D); Mouse NRR1-V1677D
T4 sequence (Q01705 1427-1752 V1666D limits assumed): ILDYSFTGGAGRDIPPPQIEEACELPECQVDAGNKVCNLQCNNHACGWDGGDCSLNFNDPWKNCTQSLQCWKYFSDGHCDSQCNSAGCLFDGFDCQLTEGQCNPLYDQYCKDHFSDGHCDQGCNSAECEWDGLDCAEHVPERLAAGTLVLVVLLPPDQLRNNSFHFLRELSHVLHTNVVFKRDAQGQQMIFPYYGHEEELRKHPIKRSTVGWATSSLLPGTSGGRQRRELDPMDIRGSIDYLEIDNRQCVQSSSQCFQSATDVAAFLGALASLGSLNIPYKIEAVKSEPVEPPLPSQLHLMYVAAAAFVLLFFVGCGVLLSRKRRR
As to the kind of experiment: anti-HA immunoblot (aHA-HRP) of cell lysate and conditioned media of HEK293-FT cells expressing the receptor, after TEVp cleavage of the scFv-NRR linker. On the procedure:
(§1) HEK293-FT cells were transfected with pcDNA3-based plasmids encoding the indicated receptor with TEVs substrate linker and N-terminal HA tag. (FIG. 11A) cell lysates and conditioned anti-HA immunoblots after 3 hours of TEVp incubation, overwise indicated. FL; full-length receptor, NTF; N-terminal fragment, Ab; ‘A-2’ variant of the anti-NRR1 scFv. (FIG. 11B) Inventors further evaluated the efficiency of TEVs cleavage by comparing an anti-HA blot (which stains all copies of the receptor, including those in the secretory pathway) to a streptavidin blot probing for surface-bound receptor copies by labelling receptors with a cell-impermeant halo-ligand-biotin conjugate. […] Immunoblot of cell lysates and conditioned media of HEK293-FT expressing the ‘V1677D’ design by transient transfection. Cells were stained with cell-impermeant halo-biotin prior to TEVp addition. Cell lysates and conditioned media were collected for immunoblot analysis after 3 hours. Colored triangle markers denote FL (top arrow of top blot), NTF (middle arrow of top blot; top arrow of bottom blot) and cleaved NTF (bottom arrows of both blots) species.
(§2) Inventors then evaluated whether these receptors have different TEVs cleavage efficiencies and anti-NRR1 scFv dissociation kinetics. They immunoblotted for the anti-NRR1 scFv mask in cell lysates and conditioned media in cells expressing the non-mutated WT, V1677D, and A1702P NRR receptors in the absence or addition of exogenous TEVp. Inventors than chose to analyze the V1677D and A1702P mutations since they were the designs with the highest and lowest protease-induced reporter activation, respectively.
For orientation: A western blot detects proteins with antibodies after separation by electrophoresis.

For assay [5], the target named is T5, mouse Notch1 NRR with the T-ALL mutation A1702P, in the receptor design (mouse, UniProt Q01705 1427-1752).
T5 construct: also called A1691P in mouse Notch1
T5 sequence (Q01705 1427-1752 A1691P limits assumed): as the sequence (Q01705 1427-1752 V1666D limits assumed) above, with D240V, A265P counted along it
The assay is described as above. On the procedure: as §1, §2

Assay [6] addresses T6, mouse Notch1 NRR, non-mutated (WT), in the control receptor HA-Halo-antiNRR-TEVs-NRR-GAL4VP64 (mouse, UniProt Q01705 1427-1752).
T6 construct: Domain of a synthetic receptor on cells; also called non-mutated NRR control; Mouse NRR1-WT
The assay is described as above. On the procedure:
as §1, §2

T1 sequence (P46531 19-1735, stated change not applied): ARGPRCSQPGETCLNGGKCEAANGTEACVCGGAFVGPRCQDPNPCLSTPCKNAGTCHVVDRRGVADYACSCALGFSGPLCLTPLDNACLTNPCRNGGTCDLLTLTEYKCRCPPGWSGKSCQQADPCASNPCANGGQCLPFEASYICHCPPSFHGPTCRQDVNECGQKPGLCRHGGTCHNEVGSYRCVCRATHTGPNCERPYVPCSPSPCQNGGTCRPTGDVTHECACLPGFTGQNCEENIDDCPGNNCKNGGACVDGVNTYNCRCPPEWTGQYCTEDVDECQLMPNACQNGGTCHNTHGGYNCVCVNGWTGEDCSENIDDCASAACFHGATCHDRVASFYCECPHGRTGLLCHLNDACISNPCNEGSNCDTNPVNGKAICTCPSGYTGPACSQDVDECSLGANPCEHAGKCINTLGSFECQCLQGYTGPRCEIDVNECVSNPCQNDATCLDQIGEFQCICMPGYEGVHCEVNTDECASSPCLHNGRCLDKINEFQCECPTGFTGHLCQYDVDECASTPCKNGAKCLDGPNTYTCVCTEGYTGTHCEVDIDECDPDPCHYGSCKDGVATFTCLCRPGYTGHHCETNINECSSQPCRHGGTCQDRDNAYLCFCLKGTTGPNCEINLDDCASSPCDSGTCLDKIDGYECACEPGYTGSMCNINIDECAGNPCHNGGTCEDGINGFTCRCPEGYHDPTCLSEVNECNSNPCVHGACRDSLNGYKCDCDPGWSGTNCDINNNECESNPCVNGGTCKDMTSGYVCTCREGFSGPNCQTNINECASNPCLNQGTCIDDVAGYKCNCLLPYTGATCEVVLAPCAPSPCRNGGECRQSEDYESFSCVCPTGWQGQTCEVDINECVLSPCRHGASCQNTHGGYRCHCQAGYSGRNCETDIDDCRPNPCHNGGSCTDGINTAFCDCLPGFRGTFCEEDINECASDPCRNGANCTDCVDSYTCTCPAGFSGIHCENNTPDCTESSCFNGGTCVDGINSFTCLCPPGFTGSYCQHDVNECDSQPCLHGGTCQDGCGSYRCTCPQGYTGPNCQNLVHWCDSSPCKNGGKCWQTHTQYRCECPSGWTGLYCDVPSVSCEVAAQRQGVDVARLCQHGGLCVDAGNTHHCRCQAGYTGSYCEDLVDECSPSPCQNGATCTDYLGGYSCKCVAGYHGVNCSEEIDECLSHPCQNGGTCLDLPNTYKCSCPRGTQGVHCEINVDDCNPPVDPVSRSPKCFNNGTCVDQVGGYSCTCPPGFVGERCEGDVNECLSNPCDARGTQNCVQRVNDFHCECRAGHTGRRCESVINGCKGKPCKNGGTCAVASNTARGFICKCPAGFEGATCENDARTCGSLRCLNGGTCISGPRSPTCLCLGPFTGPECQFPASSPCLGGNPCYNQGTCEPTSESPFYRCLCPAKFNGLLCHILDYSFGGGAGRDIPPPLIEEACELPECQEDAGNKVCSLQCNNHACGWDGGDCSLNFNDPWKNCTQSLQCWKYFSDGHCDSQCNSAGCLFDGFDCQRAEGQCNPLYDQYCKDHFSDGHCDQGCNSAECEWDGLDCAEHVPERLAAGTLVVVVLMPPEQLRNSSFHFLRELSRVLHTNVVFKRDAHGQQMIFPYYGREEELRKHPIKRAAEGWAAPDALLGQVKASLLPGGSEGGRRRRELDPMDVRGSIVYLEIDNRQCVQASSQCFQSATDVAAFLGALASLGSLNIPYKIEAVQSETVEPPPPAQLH
T6 sequence (Q01705 1427-1752 limits assumed, change not shown): as the sequence (Q01705 1427-1752 V1666D limits assumed) above, with D240V counted along it

B1: TEV-cleavable Anti-Notch1 probody, Genentech scFv, S1 loop deletion (HaloTag-anti-NRR1-scFv-TEVcs-msNRR1^V1677D-deltaS1), intact (uncleaved) (other)
chain: YPYDVPDYATGMAEIGTGFPFDPHYVEVLGERMHYVDVGPRDGTPVLFLHGNPTSSYVWRNIIPHVAPTHRCIAPDLIGMGKSDKPDLGYFFDDHVRFMDAFIEALGLEEVVLVIHDWGSALGFHWAKRNPERVKGIAFMEFIRPIPTWDEWPEFARETFQAFRTTDVGRKLIIDQNVFIEGTLPMGVVRPLTEVEMDHYREPFLNPVDREPLWRFPNELPIAGEPANIVALVEEYMDWLHQSPVPKLLFWGTPGVLIPPAEAARLAKSLPNCKAVDIGPGLNLLQEDNPDLIGSEIARWLSTLEISGGGGGSTGDGGGGEVQLVESGGGLVQPGGSLRLSCAASGFTFSSYWIHWVRQAPGKGLEWVARINPPNRSNQYADSVKGRFTISADTSKNTAYLQMNSLRAEDTAVYYCARGSGFRWVMDYWGQGTLVTVSSGGSSRSSSSGGGGSGGGGDIQMTQSPSSLSASVGDRVTITCRASQDVSTAVAWYQQKPGKAPKLLIYSASFLYSGVPSRFSGSGSGTDFTLTISSLQPEDFATYYCQQFYTTPSTFGQGTKVEIKGSNSGGTLEGGGSGENLYFQGGGGGRTGGGSEQKLISEEDLGGGSILDYSFTGGAGRDIPPPQIEEACELPECQVDAGNKVCNLQCNNHACGWDGGDCSLNFNDPWKNCTQSLQCWKYFSDGHCDSQCNSAGCLFDGFDCQLTEGQCNPLYDQYCKDHFSDGHCDQGCNSAECEWDGLDCAEHVPERLAAGTLVLVVLLPPDQLRNNSFHFLRELSHVLHTNVVFKRDAQGQQMIFPYYGMDIRGSIDYLEIDNRQCVQSSSQCFQSATDVAAFLGALASLGSLNIPYKIEAVKSEPVEGPV
modifications: HaloTag domain conjugated with JFX650 dye
notes: also called Probody^V1667D(ΔS1); Probody^V1667D(ΔS1)-JF650
In the case of B1, in assay [1], the binding result is on record as “no binding”.

B2: TEV-cleavable Anti-Notch1 probody, Genentech scFv (HaloTag-anti-NRR1-scFv-TEVcs-msNRR1^V1677D), intact (uncleaved) (other)
chain: YPYDVPDYATGMAEIGTGFPFDPHYVEVLGERMHYVDVGPRDGTPVLFLHGNPTSSYVWRNIIPHVAPTHRCIAPDLIGMGKSDKPDLGYFFDDHVRFMDAFIEALGLEEVVLVIHDWGSALGFHWAKRNPERVKGIAFMEFIRPIPTWDEWPEFARETFQAFRTTDVGRKLIIDQNVFIEGTLPMGVVRPLTEVEMDHYREPFLNPVDREPLWRFPNELPIAGEPANIVALVEEYMDWLHQSPVPKLLFWGTPGVLIPPAEAARLAKSLPNCKAVDIGPGLNLLQEDNPDLIGSEIARWLSTLEISGGGGGSTGDGGGGEVQLVESGGGLVQPGGSLRLSCAASGFTFSSYWIHWVRQAPGKGLEWVARINPPNRSNQYADSVKGRFTISADTSKNTAYLQMNSLRAEDTAVYYCARGSGFRWVMDYWGQGTLVTVSSGGSSRSSSSGGGGSGGGGDIQMTQSPSSLSASVGDRVTITCRASQDVSTAVAWYQQKPGKAPKLLIYSASFLYSGVPSRFSGSGSGTDFTLTISSLQPEDFATYYCQQFYTTPSTFGQGTKVEIKGSNSGGTLEGGGSGENLYFQGGGGGRTGGGSEQKLISEEDLGGGSILDYSFTGGAGRDIPPPQIEEACELPECQVDAGNKVCNLQCNNHACGWDGGDCSLNFNDPWKNCTQSLQCWKYFSDGHCDSQCNSAGCLFDGFDCQLTEGQCNPLYDQYCKDHFSDGHCDQGCNSAECEWDGLDCAEHVPERLAAGTLVLVVLLPPDQLRNNSFHFLRELSHVLHTNVVFKRDAQGQQMIFPYYGHEEELRKHPIKRSTVGWATSSLLPGTSGGRQRRELDPMDIRGSIDYLEIDNRQCVQSSSQCFQSATDVAAFLGALASLGSLNIPYKIEAVKSEPVEGPV
modifications: HaloTag domain conjugated with a fluorescent HaloTag-ligand dye in the binding tests (JFX650; Halo-JF635i in paragraph 360)
notes: Secreted protein; also called Probody^V1667D; Probody^V1667D-JF650
As for B2, the binding result in assay [2] and in assay [1] was “no binding” throughout.

B3: TEV-cleavable Anti-Notch1 probody, Genentech scFv, Wild-type NRR (HaloTag-anti-NRR1-scFv-TEVcs-msNRR1^WT), intact (uncleaved) (other)
chain: YPYDVPDYATGMAEIGTGFPFDPHYVEVLGERMHYVDVGPRDGTPVLFLHGNPTSSYVWRNIIPHVAPTHRCIAPDLIGMGKSDKPDLGYFFDDHVRFMDAFIEALGLEEVVLVIHDWGSALGFHWAKRNPERVKGIAFMEFIRPIPTWDEWPEFARETFQAFRTTDVGRKLIIDQNVFIEGTLPMGVVRPLTEVEMDHYREPFLNPVDREPLWRFPNELPIAGEPANIVALVEEYMDWLHQSPVPKLLFWGTPGVLIPPAEAARLAKSLPNCKAVDIGPGLNLLQEDNPDLIGSEIARWLSTLEISGGGGGSTGDGGGGEVQLVESGGGLVQPGGSLRLSCAASGFTFSSYWIHWVRQAPGKGLEWVARINPPNRSNQYADSVKGRFTISADTSKNTAYLQMNSLRAEDTAVYYCARGSGFRWVMDYWGQGTLVTVSSGGSSRSSSSGGGGSGGGGDIQMTQSPSSLSASVGDRVTITCRASQDVSTAVAWYQQKPGKAPKLLIYSASFLYSGVPSRFSGSGSGTDFTLTISSLQPEDFATYYCQQFYTTPSTFGQGTKVEIKGSNSGGTLEGGGSGENLYFQGGGGGRTGGGSEQKLISEEDLGGGSILDYSFTGGAGRDIPPPQIEEACELPECQVDAGNKVCNLQCNNHACGWDGGDCSLNFNDPWKNCTQSLQCWKYFSDGHCDSQCNSAGCLFDGFDCQLTEGQCNPLYDQYCKDHFSDGHCDQGCNSAECEWDGLDCAEHVPERLAAGTLVLVVLLPPDQLRNNSFHFLRELSHVLHTNVVFKRDAQGQQMIFPYYGHEEELRKHPIKRSTVGWATSSLLPGTSGGRQRRELDPMDIRGSIVYLEIDNRQCVQSSSQCFQSATDVAAFLGALASLGSLNIPYKIEAVKSEPVEGPV
modifications: HaloTag labelled with JFX650 dye
notes: also called Probody with a mask based on the wild-type Notch1-NRR
Consider B3, for which the binding result in assay [3] is on record as “no binding”.

B4: 'A-2' variant of the anti-NRR1 scFv (mask domain) (scFv)
scFv: EVQLVESGGGLVQPGGSLRLSCAASGFTFSSYWIHWVRQAPGKGLEWVARINPPNRSNQYADSVKGRFTISADTSKNTAYLQMNSLRAEDTAVYYCARGSGFRWVMDYWGQGTLVTVSSGGSSRSSSSGGGGSGGGGDIQMTQSPSSLSASVGDRVTITCRASQDVSTAVAWYQQKPGKAPKLLIYSASFLYSGVPSRFSGSGSGTDFTLTISSLQPEDFATYYCQQFYTTPSTFGQGTKVEIK
notes: Tested as the N-terminal mask domain of receptors HA-Halo-antiNRR-TEVs-NRR-GAL4VP64, that is on the same polypeptide as the NRR until TEVp cleaves the linker; carries HA tag and HaloTag at its N-terminus; also called A2 scFv
As to B4, the binding result in assay [4], in assay [5] and in assay [6] was “binds” throughout.
